Test results as given in US20240132589A1.

Key:
[1] = target: Human LILRB2 on stably transduced HEK293T cells (human) (UniProt Q8N423); experiment: flow cytometry competition on HEK293T-LILRB2 cells; blocking mAb 1 µg/mL; competitor: biotinylated B2Comp1
[2] = target: Human LILRB2 on stably transduced HEK293T cells (human) (UniProt Q8N423); experiment: flow cytometry competition on HEK293T-LILRB2 cells; blocking mAb 1 µg/mL; competitor: biotinylated B2Comp2
[3] = target: Human LILRB2 on stably transduced HEK293T cells (human) (UniProt Q8N423); experiment: flow cytometry competition on HEK293T-LILRB2 cells; blocking mAb 10 µg/mL; competitor: biotinylated B2Comp1
[4] = target: Human LILRB2 on stably transduced HEK293T cells (human) (UniProt Q8N423); experiment: flow cytometry competition on HEK293T-LILRB2 cells; blocking mAb 10 µg/mL; competitor: biotinylated B2Comp2
[5] = target: Human LILRB2 on stably transduced HEK293T cells (human) (UniProt Q8N423); experiment: flow cytometry competition on HEK293T-LILRB2 cells; blocking mAb 0.1 µg/mL; competitor: biotinylated B2Comp1
[6] = target: Human LILRB2 on stably transduced HEK293T cells (human) (UniProt Q8N423); experiment: flow cytometry competition on HEK293T-LILRB2 cells; blocking mAb 0.1 µg/mL; competitor: biotinylated B2Comp2

Human LILRB2 on stably transduced HEK293T cells (human), sequence (Q8N423 other isoform, or with tags, fused parts or gaps limits assumed): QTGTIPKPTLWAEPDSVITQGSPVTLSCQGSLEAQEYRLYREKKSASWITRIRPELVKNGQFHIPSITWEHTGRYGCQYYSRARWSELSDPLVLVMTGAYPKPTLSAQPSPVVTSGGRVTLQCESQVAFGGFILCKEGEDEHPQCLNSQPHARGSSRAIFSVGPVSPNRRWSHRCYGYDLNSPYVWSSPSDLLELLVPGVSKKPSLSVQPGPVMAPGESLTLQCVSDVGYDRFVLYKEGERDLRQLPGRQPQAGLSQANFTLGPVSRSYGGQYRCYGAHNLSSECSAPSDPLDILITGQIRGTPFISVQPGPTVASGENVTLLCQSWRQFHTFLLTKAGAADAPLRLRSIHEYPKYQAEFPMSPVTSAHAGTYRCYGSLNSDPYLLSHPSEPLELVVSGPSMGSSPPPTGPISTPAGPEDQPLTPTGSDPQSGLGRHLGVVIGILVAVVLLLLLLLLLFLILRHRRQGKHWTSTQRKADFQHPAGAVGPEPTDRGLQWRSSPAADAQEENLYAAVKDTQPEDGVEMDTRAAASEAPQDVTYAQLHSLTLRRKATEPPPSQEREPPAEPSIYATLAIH

% Blocking of B2Comp1 Binding [1]: 0%
% Blocking of B2Comp2 Binding [2]: 0%
% Blocking of B2Comp1 Binding [3]: 0%
% Blocking of B2Comp2 Binding [4]: 0%
% Blocking of B2Comp1 Binding [5]: 0%
% Blocking of B2Comp2 Binding [6]: 0%
Substance: hIgG4 isotype control (antibody)
